Results published in patent US20180346600A1.
Like-named read-outs stand apart in the source and are kept apart here. One block for each substance: values may come before it.

Legend:
Assay in all cases: HEK293-F co-expression, Protein A purification, non-reducing SDS-PAGE densitometry
[1] = biological target: scFv-FcCH3A, EW-RVT (K360E/K409W) (human)
[2] = biological target: scFv-FcCH3A, EW-RVT (K360E/K409W) (human); remark: listed apart in the source
[3] = biological target: scFv-FcCH3A, B235 (K392C/D399L) (human) [IgG part: P0DOX5]
[4] = biological target: scFv-FcCH3A, A146w/oW-VT (K370D) (human) [IgG part: P0DOX5]
[5] = biological target: scFv-FcCH3A, W-VT (K409W) (human) [IgG part: P0DOX5]
[6] = biological target: scFv-FcCH3A, B256 (K392N/D399L) (human) [IgG part: P0DOX5]
[7] = biological target: scFv-FcCH3A, B215 (K392R/K409R/D399L) (human) [IgG part: P0DOX5]
[8] = biological target: scFv-FcCH3A, B135 (D399L/K409W) (human) [IgG part: P0DOX5]
[9] = biological target: scFv-FcCH3A, A109w/oW-VT (K370M) (human) [IgG part: P0DOX5]
[10] = biological target: scFv-FcCH3A, B168w/oW-VT (D399L) (human) [IgG part: P0DOX5]
[11] = biological target: scFv-FcCH3A, B168w/oW-VT (D399L) (human) [IgG part: P0DOX5]; remark: listed apart in the source
[12] = biological target: scFv-FcCH3A, A107w/oW-VT (K370E) (human) [IgG part: P0DOX5]
[13] = biological target: scFv-FcCH3A, A107w/oW-VT (K370E) (human) [IgG part: P0DOX5]; remark: listed apart in the source
[14] = biological target: scFv-FcCH3A, B121 (D399E/K409W) (human) [IgG part: P0DOX5]
[15] = biological target: scFv-FcCH3A, B240 (K392S/K409R/D399L) (human) [IgG part: P0DOX5]
[16] = biological target: scFv-FcCH3A, A109 (K370M/K409W) (human) [IgG part: P0DOX5]
[17] = biological target: scFv-FcCH3A, A216 (E357G/S364W/K370E) (human) [IgG part: P0DOX5]
[18] = biological target: scFv-FcCH3A, A241 (E357N/S364W/K370E) (human) [IgG part: P0DOX5]
[19] = biological target: scFv-FcCH3A, B212 (K392I/D399L) (human) [IgG part: P0DOX5]
[20] = biological target: scFv-FcCH3A, A205 (E357D/S364W/K370E) (human) [IgG part: P0DOX5]
[21] = biological target: scFv-FcCH3A, B168 (D399L/K409W) (human) [IgG part: P0DOX5]
[22] = biological target: scFv-FcCH3A, A210 (E357A/S364Y/K370E) (human) [IgG part: P0DOX5]
[23] = biological target: scFv-FcCH3A, A107 (K370E/K409W) (human) [IgG part: P0DOX5]
[24] = biological target: scFv-FcCH3A, B239 (K392L/D399L) (human) [IgG part: P0DOX5]

Substance: scFv-FcCH3A, A146w/oW-VT (K370D) (from UniProt P0DOX5 227-449) (Fc fusion)
(scFv-Fc)2 (homodimer)(%) [4]: 4.6%

Substance: scFv-FcCH3A, B135 (D399L/K409W) (from UniProt P0DOX5 227-449) (Fc fusion)
(scFv-Fc)2 (homodimer)(%) [8]: 4.1%

Substance: scFv-FcCH3A, A109w/oW-VT (K370M) (from UniProt P0DOX5 227-449) (Fc fusion)
(scFv-Fc)2 (homodimer)(%) [9]: 5.6%

Substance: scFv-FcCH3A, B121 (D399E/K409W) (from UniProt P0DOX5 227-449) (Fc fusion)
(scFv-Fc)2 (homodimer)(%) [14]: 1.5%

Substance: scFv-FcCH3A, B240 (K392S/K409R/D399L) (from UniProt P0DOX5 227-449) (Fc fusion)
(scFv-Fc)2 (homodimer)(%) [15]: 4.8%

Substance: scFv-FcCH3A, A109 (K370M/K409W) (from UniProt P0DOX5 227-449) (Fc fusion)
(scFv-Fc)2 (homodimer)(%) [16]: 0.5%

Substance: scFv-FcCH3A, A241 (E357N/S364W/K370E) (from UniProt P0DOX5 227-449) (Fc fusion)
(scFv-Fc)2 (homodimer)(%) [18]: 15.7%

Substance: scFv-FcCH3A, B212 (K392I/D399L) (from UniProt P0DOX5 227-449) (Fc fusion)
(scFv-Fc)2 (homodimer)(%) [19]: 0.9%

Substance: scFv-FcCH3A, B168 (D399L/K409W) (from UniProt P0DOX5 227-449) (Fc fusion)
(scFv-Fc)2 (homodimer)(%) [21]: 1.2%

Substance: scFv-FcCH3A, A107 (K370E/K409W) (from UniProt P0DOX5 227-449) (Fc fusion)
(scFv-Fc)2 (homodimer)(%) [23]: 4.2%

Substance: scFv-FcCH3A, B239 (K392L/D399L) (from UniProt P0DOX5 227-449) (Fc fusion)
(scFv-Fc)2 (homodimer)(%) [24]: 3.4%

Other lines, results leading:

(scFv-Fc)2 (homodimer)(%) [1]: 0.5%
(scFv-Fc)2 (homodimer)(%) [2]: 0.5%
Substance: scFv-FcCH3A, EW-RVT (K360E/K409W) (Fc fusion)

(scFv-Fc)2 (homodimer)(%) [3]: 3.7%
Substance: scFv-FcCH3A, B235 (K392C/D399L) (from UniProt P0DOX5 227-449) (Fc fusion)

(scFv-Fc)2 (homodimer)(%) [5]: 1.4%
Substance: scFv-FcCH3A, W-VT (K409W) (from UniProt P0DOX5 227-449) (Fc fusion)

(scFv-Fc)2 (homodimer)(%) [6]: 3.9%
Substance: scFv-FcCH3A, B256 (K392N/D399L) (from UniProt P0DOX5 227-449) (Fc fusion)

(scFv-Fc)2 (homodimer)(%) [7]: 1.9%
Substance: scFv-FcCH3A, B215 (K392R/K409R/D399L) (from UniProt P0DOX5 227-449) (Fc fusion)

(scFv-Fc)2 (homodimer)(%) [10]: 1.5%
(scFv-Fc)2 (homodimer)(%) [11]: 1.6%
Substance: scFv-FcCH3A, B168w/oW-VT (D399L) (from UniProt P0DOX5 227-449) (Fc fusion)

(scFv-Fc)2 (homodimer)(%) [12]: 21.3%
(scFv-Fc)2 (homodimer)(%) [13]: 21.3%
Substance: scFv-FcCH3A, A107w/oW-VT (K370E) (from UniProt P0DOX5 227-449) (Fc fusion)

(scFv-Fc)2 (homodimer)(%) [17]: 1.5%
Substance: scFv-FcCH3A, A216 (E357G/S364W/K370E) (from UniProt P0DOX5 227-449) (Fc fusion)

(scFv-Fc)2 (homodimer)(%) [20]: 1%
Substance: scFv-FcCH3A, A205 (E357D/S364W/K370E) (from UniProt P0DOX5 227-449) (Fc fusion)

(scFv-Fc)2 (homodimer)(%) [22]: 9.9%
Substance: scFv-FcCH3A, A210 (E357A/S364Y/K370E) (from UniProt P0DOX5 227-449) (Fc fusion)
